Data on three molecules can be found in PMC11910319, “Inhibition of L-threonine dehydrogenase from Trypanosoma cruzi reduces glycine and acetate production and interferes with parasite growth and viability” (The Journal of Biological Chemistry, 2024).

The target of series [1] is T1, T. cruzi L-threonine dehydrogenase (TcTDH) (Trypanosoma cruzi, UniProt Q4CU39).
T1 construct: gene Tc00.1047053507923.10; recombinant TcTDH, codon-optimized gene in pET28a, His-tag purified
T1 sequence (Q4CU39 1-332): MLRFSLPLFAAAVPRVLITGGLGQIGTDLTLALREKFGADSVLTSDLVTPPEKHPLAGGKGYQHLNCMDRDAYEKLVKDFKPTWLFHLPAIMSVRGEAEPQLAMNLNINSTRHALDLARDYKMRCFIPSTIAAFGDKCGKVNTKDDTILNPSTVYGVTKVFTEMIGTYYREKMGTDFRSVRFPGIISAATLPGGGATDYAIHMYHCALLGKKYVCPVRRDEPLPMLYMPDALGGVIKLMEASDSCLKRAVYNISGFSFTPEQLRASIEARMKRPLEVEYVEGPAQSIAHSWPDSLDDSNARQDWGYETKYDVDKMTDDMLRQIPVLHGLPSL
Briefly: recombinant enzyme, diaphorase/resazurin coupled fluorescence assay; Ki by direct NADH fluorescence (Ki-Thr […], Ki-NAD+[…]). It is filed as biochemical.

The target of series [2] is Trypanosoma cruzi L-threonine dehydrogenase (TcTDH), recombinant wild type (Trypanosoma cruzi (CL Brener Esmeraldo-like strain)). Briefly: SEC; data not shown; quaternary structure in solution.
Substrate in the series “purified protein”: C[C@@H](O)[C@H](N)C(=O)O
The experiment in a line: purified protein. It is filed as biochemical, Trypanosoma cruzi. Conditions: NAD+; K+ ([…] KCl).

As a reminder, the IC50 is the concentration that gives 50% inhibition. `CCOc1ccc(NC(=O)/C=C/c2ccc(CC)o2)cc1` [TCMDC-143160]: the IC50 in series [1] came out at 3.5 µM.
Usually stoichiometry N stands for a count of units in the complex or per binding partner. With “Trypanosoma cruzi L-threonine dehydrogenase (TcTDH), recombinant wild type (enzyme)”, the stoichiometry N in series [2] was determined as 2.

B1: T. cruzi L-threonine dehydrogenase (TcTDH) (Trypanosoma cruzi strain CL Brener) (protein)
chain: MLRFSLPLFAAAVPRVLITGGLGQIGTDLTLALREKFGADSVLTSDLVTPPEKHPLAGGKGYQHLNCMDRDAYEKLVKDFKPTWLFHLPAIMSVRGEAEPQLAMNLNINSTRHALDLARDYKMRCFIPSTIAAFGDKCGKVNTKDDTILNPSTVYGVTKVFTEMIGTYYREKMGTDFRSVRFPGIISAATLPGGGATDYAIHMYHCALLGKKYVCPVRRDEPLPMLYMPDALGGVIKLMEASDSCLKRAVYNISGFSFTPEQLRASIEARMKRPLEVEYVEGPAQSIAHSWPDSLDDSNARQDWGYETKYDVDKMTDDMLRQIPVLHGLPSL
notes: recombinant TcTDH
Usually Km stands for the substrate concentration at which the rate is half of its maximum. As to B1, in “purified protein”, the Km is 6.6 mM.
